We go through 167 variants from the RNAGym collection of RNA variant scans (doi:10.7554/elife.80360).

B1: HDV Ribozyme (parent)
chain: GGCCGGCAUGGUCCCAGCCUCCUCGCUGGCGCCGGCUGGGCAACAUUCCGAGGGGACCGUCCCCUCGGUAAUGGCGAAUGGGACCCA

This data set covers variants of B1. Put plainly: self-cleavage, relative activity (ratio to wild type); higher = more cleavage; co-transcriptional.
Regarding C33A C86A, the self-cleavage amounted to 0.277.
For the variant C33A, the self-cleavage is 0.29.
In the case of C32U U60C, the self-cleavage came to 0.7.
Regarding C33A G54C, the self-cleavage came out at 0.222.
In the case of C33A G54U it was 0.198; in that of C32U U69A, 1.13.
With C32U A45G, the self-cleavage amounted to 0.755.
On to C32U A45C, for which the self-cleavage turned out to be 0.291.
In the case of C32U A45U it was 0.631.
For C32U G82C, the self-cleavage came to 0.253.
For the variant C32U G82A, the self-cleavage is 0.354.
On to C32G U69A, for which the self-cleavage is 0.148.
For C32G U69C, the self-cleavage stood at 0.0639.
As to C32G U69G, the self-cleavage turned out to be 0.0504.
For C33A C44U the value was 0.0707; for C32A G35A, 0.122; for C33A G55U, 0.349.
With C33A A51G, the self-cleavage came to 0.289.
Turning to C32U C63A, the self-cleavage was 0.701.
Take C32U C63U: the self-cleavage came out at 0.817.
In the case of G31U G81A it was 0.162.
For the variant G31U G81C, the self-cleavage was 0.208.
For the variant C32A G81A, the self-cleavage was 0.0779.
For the variant C32A G81U, the self-cleavage came to 0.136.
Turning to C32A G81C, the self-cleavage is 0.0475.
In the case of C32G G81A, the self-cleavage was determined as 0.0297.
For C32G G81C, the self-cleavage worked out at 0.0773.
In the case of C32A U69G it was 0.271; in that of C32A U69A, 0.0652.
As for C32U C75U, the self-cleavage was determined as 0.315.
On to C32A G68A, for which the self-cleavage came to 0.185.
In the case of C32U G74A, the self-cleavage stood at 0.459.
C33A A43U: the self-cleavage came out at 0.163.
For C33A C75G, the self-cleavage is 0.145.
As to G31U U69C, the self-cleavage worked out at 0.396.
Regarding G31U U69G, the self-cleavage is 0.386.
For C32U C41U, the self-cleavage came out at 0.629.
Regarding C32U C41G, the self-cleavage was determined as 0.429.
For C33A C63G the value was 0.283; for C33A C63U, 0.503.
C32G C63A: the self-cleavage is 0.
C32U C64U: the self-cleavage is 0.831.
With C33A C49U, the self-cleavage came to 0.212.
For C33A C49A the value was 0.364; for C32G G76U, 0.122.
Consider C32G G76C, for which the self-cleavage amounted to 0.224.
For C32A C33G the value was 0.0405.
With C32A C33A, the self-cleavage turned out to be 0.129.
In the case of C33A C36G, the self-cleavage came out at 0.208.
As to C33A C36U, the self-cleavage amounted to 0.0396.
In the case of C32G U46A it was 0.0332.
Consider C32A C84G, for which the self-cleavage came to 0.111.
For the variant C33A G52A, the self-cleavage is 0.229.
C33A G52U: the self-cleavage worked out at 0.161.
In the case of C33A G52C, the self-cleavage came out at 0.284.
As to C32G C44A, the self-cleavage was found to be 0.0791.
Take C32G C44U: the self-cleavage is 0.0665.
Take C32U G53C: the self-cleavage worked out at 0.846.
Take C32U G53U: the self-cleavage came out at 0.811.
In the case of C32G G80U it was 0.0831; in that of C32G C84G, 0.0594; in that of C32U G68A, 0.888.
Regarding C32U G68U, the self-cleavage was 0.776.
As for C32G A51U, the self-cleavage came to 0.128.
C32G G53U: the self-cleavage came out at 0.196.
In the case of C32G G53C it was 0.213.
In the case of C33A G40A it was 0.214.
On to C32G G59U, for which the self-cleavage amounted to 0.0519.
Turning to C32G G59A, the self-cleavage came out at 0.0489.
Take C32G G68U: the self-cleavage stood at 0.089.
On to C32G G68A, for which the self-cleavage worked out at 0.185.
In the case of C32U A77G, the self-cleavage is 0.73.
For C32A G38C the value was 0.0817; for C32A G38A, 0.0665; for C32A A45U, 0.151.
For the variant C32A A45G, the self-cleavage came out at 0.198.
Turning to C32A G50U, the self-cleavage worked out at 0.178.
In the case of C32U U79C it was 0.201.
For C33A C57U the value was 0.46.
For C33A A56U, the self-cleavage is 0.475.
Consider C33A A56C, for which the self-cleavage worked out at 0.339.
For C33A A56G, the self-cleavage worked out at 0.324.
Take C32A C41G: the self-cleavage turned out to be 0.
For C32A C41A, the self-cleavage was 0.089.
On to C32U A71C, for which the self-cleavage came out at 0.665.
Consider C32A C75G, for which the self-cleavage was determined as 0.285.
Take C32A C75U: the self-cleavage was found to be 0.0791.
As to C32G C61A, the self-cleavage came out at 0.121.
For C32G C61G the value was 0.0604.
For C32G C61U, the self-cleavage amounted to 0.026.
C32U C44A: the self-cleavage turned out to be 0.243.
Regarding C32G C33G, the self-cleavage turned out to be 0.0906.
C32G C33A: the self-cleavage turned out to be 0.0615.
C32G G74A: the self-cleavage came to 0.126.
With C32G G74U, the self-cleavage came out at 0.125.
With C32G G74C, the self-cleavage is 0.166.
C32U C86U: the self-cleavage came to 0.686.
For C32U A51C the value was 0.541.
In the case of C32U A51G it was 0.92; in that of C32U A78C, 0.177.
For C32U A78U the value was 0.178; for C32A U72A, 0.156; for C32A U72C, 0.133.
For C32A U72G, the self-cleavage came to 0.178.
Take C32G C86A: the self-cleavage came to 0.18.
For C32G C86G the value was 0.119; for C32A C57U, 0.318; for C32A C57A, 0.295.
With C32A C57G, the self-cleavage is 0.389.
With C32G U79C, the self-cleavage stood at 0.0205.
In the case of C33A A78G, the self-cleavage came to 0.161.
For C32A G82U the value was 0.104; for C32U U37A, 0.252; for C32U G54U, 0.923.
For C32U G54C the value was 0.992; for C32G G55U, 0.0911; for C32G G55C, 0.136.
As for C32G G55A, the self-cleavage came out at 0.0841.
As to C32A C58A, the self-cleavage was 0.208.
For the variant C32A C58U, the self-cleavage worked out at 0.208.
With C32A C58G, the self-cleavage is 0.
Regarding G31U U79A, the self-cleavage worked out at 0.148.
Take G31U U79G: the self-cleavage came out at 0.147.
Take C32G A42C: the self-cleavage came to 0.0678.
For C32A A78G the value was 0.113; for C32A A78C, 0.0665.
Regarding C32G G73C, the self-cleavage stood at 0.12.
Take C32A C86A: the self-cleavage was determined as 0.356.
For C32U A43C the value was 0.196.
In the case of C33A G74A, the self-cleavage is 0.0219.
In the case of C32U G40U, the self-cleavage turned out to be 0.758.
For C32U C58A the value was 1.
In the case of G31U U37A it was 0.172; in that of G31U U37C, 0.415.
Take C32A C66G: the self-cleavage worked out at 0.213.
For C32A C66A the value was 0.181; for C32G G50A, 0.157.
In the case of C32G G50C it was 0.262; in that of C32G G38C, 0.0462; in that of C32A G73C, 0.0906.
Consider C32A G73U, for which the self-cleavage was determined as 0.0959.
Take C32A G73A: the self-cleavage was 0.138.
As for C32A A56G, the self-cleavage amounted to 0.252.
For C32A A56C, the self-cleavage was determined as 0.293.
In the case of C32U A87G it was 0.787; in that of C32U A87U, 1.03.
In the case of C32A U60G, the self-cleavage was determined as 0.138.
For C32A C63G the value was 0.095; for C32A C63A, 0.232.
In the case of C32A A77C it was 0.219.
In the case of C32G G54C, the self-cleavage was found to be 0.086.
For the variant C32G G54A, the self-cleavage came out at 0.0898.
Take C32A G55U: the self-cleavage is 0.219.
With C32A G55A, the self-cleavage came to 0.145.
As for C32A G55C, the self-cleavage was 0.133.
As to C33A A83G, the self-cleavage was 0.144.
As to C32A U37A, the self-cleavage came to 0.0627.
For the variant C32A U37G, the self-cleavage is 0.166.
For C32G C66G, the self-cleavage stood at 0.0583.
Turning to C32G C66A, the self-cleavage is 0.113.
Turning to C33A C48A, the self-cleavage turned out to be 0.314.
Consider C32G C48U, for which the self-cleavage was 0.0449.
Consider C32A U47G, for which the self-cleavage turned out to be 0.246.
As for C32A U47A, the self-cleavage was 0.322.
Take C33A G50C: the self-cleavage turned out to be 0.203.
On to C33A G50U, for which the self-cleavage was 0.295.
For C33A G50A the value was 0.215.
